# Data taken from PMC6141813, “NagRBt Is a Pleiotropic and Dual Transcriptional Regulator in Bacillus thuringiensis”.
# Molecular target: NagRBt (formerly YvoABt) (Bacillus thuringiensis strain Bti75, UniProt A0A1T3UL85 1-243)
# Assay: EMSA; EMSA: 10 mM Tris-HCl pH 8.0, 1 mM MgCl2, 50 mM NaCl, 0.5 mM DTT, 0.5 mM EDTA, 5% glycerol, 30 C, 30 min; 0.2 uM probe; competition with 3.0 uM NagRBt, 400-fold
# Conditions: protein: recombinant; tags: C-terminal His (pET-28a(+)); chain copies: 2; unlabeled (EB stain); blunt
row,Binder,binding result
1,crr (ptsA) dre probe (H) (dsDNA) DNA 1: TTTTTTTGCCCAACTTGTCTAGAGGTCTTTACTACATTTT DNA 2: AAAATGTAGTAAAGACCTCTAGACAAGTTGGGCAAAAAAA,binds
2,chiA dre probe (D) (dsDNA) DNA 1: AACCAATCATCTAGACAACTATATAACACGAACGTTTTAC DNA 2: GTAAAACGTTCGTGTTATATAGTTGTCTAGATGATTGGTT,binds
